Measured values published in paper PMC9703140 (Nature chemical biology, 2022).

Tests used:
[1] = target: T1, MHC-related protein 1 (MR1), hpMR1 (Homo sapiens, UniProt Q95460); test: DSF of refolded complex; format: binding
[2] = target: T1, MHC-related protein 1 (MR1), hpMR1; test: 1D […] NMR titration; format: binding
[3] = target: TAPBPR^WT (luminal domain of TAPBPR C94S); test: SPR

O=Cc1c(O)ccc2ccccc12 [2OH1NA, 2-hydroxy-1-naphthaldehyde]
DSF of refolded complex (Tm 55.3 °C); NMR methyl HMQC [1]: 55.3 °C

O=C(O)Cc1ccccc1Nc1c(Cl)cc(F)cc1Cl [19F-DCF, 2-(2-((2,6-dichloro-4-fluorophenyl)amino)phenyl)acetic acid]
Kd [2]: 36.1 µM

Ac-6-FP loaded hMR1 C262S/hβ2m (from UniProt P61769 21-119) (complex)
Kd [3]: 100 µM

Ac-6-FP loaded hMR1/hβ2m (wild type) (from UniProt P61769 21-119) (complex)
Kd [3]: 100 µM

Ac-6-FP–hpMR1–bβ2m (from UniProt Q95460 23-290; P01888 21-118) (complex)
Kd [3]: 104 µM

TAX9/HLA-A*02:01/hβ2m (from UniProt P61769 21-119) (peptide-MHC)
Kd [3]: 18.5 µM

UV-irradiated HLA-A*02:01/hβ2m (empty, peptide-deficient) (from UniProt P61769 21-119) (complex)
Kd [3]: 0.082 µM
